Test results reported in patent publication US20110243947A1 (Eli Lilly, published 2011).

Key:
mouse CSF-1R = target: T1, mouse CSF-1R (mouse, UniProt P09581 20-511, limits assumed); test: binding ELISA, coated receptor protein
T1 construct: also called murine form of the receptor
T1 sequence (looked up): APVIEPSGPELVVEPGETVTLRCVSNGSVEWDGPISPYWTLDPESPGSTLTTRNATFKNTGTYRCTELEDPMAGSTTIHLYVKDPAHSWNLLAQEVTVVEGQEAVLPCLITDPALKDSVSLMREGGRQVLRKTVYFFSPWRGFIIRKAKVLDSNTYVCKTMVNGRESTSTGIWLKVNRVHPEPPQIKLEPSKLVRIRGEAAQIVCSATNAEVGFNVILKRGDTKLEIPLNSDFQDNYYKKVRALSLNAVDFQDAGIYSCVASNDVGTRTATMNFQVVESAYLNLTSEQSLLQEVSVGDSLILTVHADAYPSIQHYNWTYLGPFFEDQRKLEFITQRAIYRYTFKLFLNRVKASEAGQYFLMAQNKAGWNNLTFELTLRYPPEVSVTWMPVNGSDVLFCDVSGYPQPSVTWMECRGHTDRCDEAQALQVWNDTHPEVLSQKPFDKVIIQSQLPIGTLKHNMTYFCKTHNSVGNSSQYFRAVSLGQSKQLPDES
Protocol: (§1) Briefly, coat plates with 100 μL of 200 ng/mL human, mouse or chimera 1-7 proteins overnight.

chimera 3 (m,m,m) = target: T2, chimera 3 (m,m,m) (mouse; human, UniProt P09581 21-292); test: binding ELISA, coated chimera
T2 construct: range 21-292; not shown: Fc portion of an IgG molecule
Protocol: as §1

T2 sequence (P09581 other isoform, or with tags, fused parts or gaps mutant): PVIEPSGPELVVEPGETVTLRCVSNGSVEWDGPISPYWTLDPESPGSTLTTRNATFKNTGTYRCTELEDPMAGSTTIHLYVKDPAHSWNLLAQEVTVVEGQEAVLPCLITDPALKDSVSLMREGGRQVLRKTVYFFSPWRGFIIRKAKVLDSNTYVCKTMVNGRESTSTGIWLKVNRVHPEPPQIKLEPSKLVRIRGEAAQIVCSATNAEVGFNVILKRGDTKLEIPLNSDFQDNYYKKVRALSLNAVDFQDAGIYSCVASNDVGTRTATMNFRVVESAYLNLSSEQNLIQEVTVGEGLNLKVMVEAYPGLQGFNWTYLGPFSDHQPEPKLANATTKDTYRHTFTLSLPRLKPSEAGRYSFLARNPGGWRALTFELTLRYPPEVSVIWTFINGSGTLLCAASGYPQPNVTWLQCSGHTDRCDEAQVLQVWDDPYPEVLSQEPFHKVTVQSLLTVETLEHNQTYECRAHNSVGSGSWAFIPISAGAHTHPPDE

binding result (mouse CSF-1R): no binding (tested: 100 nM)
binding result (chimera 3 (m,m,m)): no binding (tested: 100 nM)
B1: Antibody 1 (antibody, human IgG1, kappa, V domains shown)
VH: QDQLVESGGGVVQPGRSLRLSCAASGFTFSSYGMHWVRQAPGEGLEWVAVIWYDGSNKYYADSVKGRFTISRDNSKNTLYLQMNSLRAEDTAVYYCARGDYEVDYGMDVWGQGTTVTVAS
VL: AIQLTQSPSSLSASVGDRVTITCRASQGISNALAWYQQKPGKAPKLLIYDASSLESGVPSRFSGSGSGTDFTLTISSLQPEDFATYYCQQFNSYPWTFGQGTKVEIKR
notes: also called anti-CSF-1R Antibody 1
